Test results: article PMC10397247

Key:
Assay in all cases: two-hybrid library CCNG1;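 note: natural log of median RNA to DNA barcode read ratio; higher means stronger binding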
[1] = molecular target: T1, 4H1985-bN
T1 chain: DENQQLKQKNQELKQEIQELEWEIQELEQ

[2] = molecular target: T2, 4H3817-bA
T2 chain: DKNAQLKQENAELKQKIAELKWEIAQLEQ

[3] = molecular target: T3, 4H3628-bN
T3 chain: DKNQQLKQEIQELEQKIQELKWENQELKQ

[4] = molecular target: T4, 4H1629-bN
T4 chain: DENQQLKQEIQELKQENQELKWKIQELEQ

[5] = molecular target: T5, 4H1710-bN
T5 chain: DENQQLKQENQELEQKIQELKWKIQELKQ

[6] = molecular target: T6, 4H1899-bN
T6 chain: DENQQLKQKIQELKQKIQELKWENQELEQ

[7] = molecular target: T7, 4H1373-bN
T7 chain: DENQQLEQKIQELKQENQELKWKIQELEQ

[8] = molecular target: T8, 4H1222-bN
T8 chain: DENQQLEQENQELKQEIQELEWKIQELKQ

[9] = molecular target: T9, 4H3817-bN
T9 chain: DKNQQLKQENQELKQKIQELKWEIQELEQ

[10] = molecular target: T10, 4H906-bN
T10 chain: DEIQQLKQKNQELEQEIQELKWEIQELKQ

[11] = molecular target: T11, 4H1393-bN
T11 chain: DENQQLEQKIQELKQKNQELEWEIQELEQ

[12] = molecular target: T12, 4H570-bN
T12 chain: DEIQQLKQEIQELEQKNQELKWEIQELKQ

[13] = molecular target: T13, 4H3858-bN
T13 chain: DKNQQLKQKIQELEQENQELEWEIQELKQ

[14] = molecular target: T14, 4H3414-bN
T14 chain: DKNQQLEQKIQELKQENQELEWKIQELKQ

[15] = molecular target: T15, 4H619-bN
T15 chain: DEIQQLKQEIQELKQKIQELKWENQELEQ

[16] = molecular target: T16, 4H3926-bN
T16 chain: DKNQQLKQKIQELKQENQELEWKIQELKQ

[17] = molecular target: T17, 4H3631-bN
T17 chain: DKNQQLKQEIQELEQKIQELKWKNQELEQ

[18] = molecular target: T18, 4H1804-bN
T18 chain: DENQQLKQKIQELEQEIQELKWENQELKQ

[19] = molecular target: T19, 4H584-bN
T19 chain: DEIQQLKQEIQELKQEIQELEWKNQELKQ

[20] = molecular target: T20, 4H3129-bN
T20 chain: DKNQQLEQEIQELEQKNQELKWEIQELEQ

[21] = molecular target: T21, O9-bH
T21 chain: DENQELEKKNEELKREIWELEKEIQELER

[22] = molecular target: T22, 4H3974-bN
T22 chain: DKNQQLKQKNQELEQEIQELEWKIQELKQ

[23] = molecular target: T23, 4H3638-bN
T23 chain: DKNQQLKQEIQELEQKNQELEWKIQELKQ

[24] = molecular target: T24, 4H363-bN
T24 chain: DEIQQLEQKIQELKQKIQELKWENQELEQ

[25] = molecular target: T25, 4H1338-bN
T25 chain: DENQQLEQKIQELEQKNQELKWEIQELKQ

[26] = molecular target: T26, 4H1449-bN
T26 chain: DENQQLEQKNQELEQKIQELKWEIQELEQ

[27] = molecular target: T27, 4H1348-bN
T27 chain: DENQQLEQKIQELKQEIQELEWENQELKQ

[28] = molecular target: T28, 4H3613-bN
T28 chain: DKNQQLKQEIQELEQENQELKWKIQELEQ

[29] = molecular target: T29, 4H1359-bN
T29 chain: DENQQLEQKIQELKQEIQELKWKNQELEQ

[30] = molecular target: T30, 4H850-bN
T30 chain: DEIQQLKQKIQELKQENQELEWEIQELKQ

[31] = molecular target: T31, 4H1544-bN
T31 chain: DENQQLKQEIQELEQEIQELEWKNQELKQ

[32] = molecular target: T32, 4H3172-bN
T32 chain: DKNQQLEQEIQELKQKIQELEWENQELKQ

[33] = molecular target: T33, 4H2503-bH
T33 chain: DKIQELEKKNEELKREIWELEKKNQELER

[34] = molecular target: T34, 4H2223-bH
T34 chain: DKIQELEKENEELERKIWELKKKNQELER

[35] = molecular target: T35, 4H2915-bH
T35 chain: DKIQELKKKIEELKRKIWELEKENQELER

[36] = molecular target: T36, 4H492-bH
T36 chain: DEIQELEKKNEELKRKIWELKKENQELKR

[37] = molecular target: T37, 4H3057-bH
T37 chain: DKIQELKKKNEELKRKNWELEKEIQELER

[38] = molecular target: T38, 4H348-bH
T38 chain: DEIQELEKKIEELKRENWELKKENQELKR

[39] = molecular target: T39, 4H477-bH
T39 chain: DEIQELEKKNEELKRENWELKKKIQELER

[40] = molecular target: T40, 4H40-bH
T40 chain: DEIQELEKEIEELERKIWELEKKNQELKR

[41] = molecular target: T41, 4H2473-bH
T41 chain: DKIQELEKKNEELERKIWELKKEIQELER

[42] = molecular target: T42, 4H2588-bH
T42 chain: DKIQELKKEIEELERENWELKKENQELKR

[43] = molecular target: T43, 4H2438-bH
T43 chain: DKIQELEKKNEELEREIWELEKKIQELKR

[44] = molecular target: T44, 4H2717-bH
T44 chain: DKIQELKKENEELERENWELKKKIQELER

[45] = molecular target: T45, 4H319-bH
T45 chain: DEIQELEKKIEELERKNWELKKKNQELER

[46] = molecular target: T46, 4H2839-bH
T46 chain: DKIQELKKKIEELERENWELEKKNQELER

[47] = molecular target: T47, 4H2692-bH
T47 chain: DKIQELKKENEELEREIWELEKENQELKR

[48] = molecular target: T48, 4H2134-bH
T48 chain: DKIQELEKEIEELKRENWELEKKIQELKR

[49] = molecular target: T49, 4H2143-bH
T49 chain: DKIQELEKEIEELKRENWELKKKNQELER

[50] = molecular target: T50, 4H741-bH
T50 chain: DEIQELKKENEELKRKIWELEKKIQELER

[51] = molecular target: T51, 4H182-bH
T51 chain: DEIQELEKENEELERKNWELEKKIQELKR

[52] = molecular target: T52, 4H121-bH
T52 chain: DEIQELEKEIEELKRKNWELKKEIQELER

[53] = molecular target: T53, 4H3277-bH
T53 chain: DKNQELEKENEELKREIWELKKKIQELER

DENQQLEQENQELKQEIQELEWKIQELKQ [4H1222-bN]
interaction score [1]: -2.04 | interaction score [2]: 1.4 | interaction score [3]: -0.764 | interaction score [4]: 0.612 | interaction score [5]: 0.715 | interaction score [6]: -0.657 | interaction score [7]: -0.0597 | interaction score [8]: -1.63 | interaction score [9]: 2.15 | interaction score [10]: -1.3 | interaction score [11]: -0.718 | interaction score [12]: -0.0662 | interaction score [13]: -0.767 | interaction score [14]: 0.105 | interaction score [15]: -0.785 | interaction score [16]: 0.755 | interaction score [17]: 0.357 | interaction score [18]: 0.407 | interaction score [19]: -0.959 | interaction score [20]: -0.201 | interaction score [21]: 1.11 | interaction score [22]: -0.957 | interaction score [23]: 0.921 | interaction score [24]: -0.189 | interaction score [25]: 0.344 | interaction score [26]: -0.277 | interaction score [27]: -2.2 | interaction score [28]: 0.482 | interaction score [29]: 0.554 | interaction score [30]: 0.741 | interaction score [31]: -1.38 | interaction score [32]: -0.0903

DEIQELEKEIEELKRKNWELKKEIQELER [4H121-bH]
interaction score [33]: -0.913 | interaction score [34]: 1.48 | interaction score [35]: 0.235 | interaction score [36]: -0.574 | interaction score [37]: 0.547 | interaction score [38]: -0.636 | interaction score [39]: -1.3 | interaction score [40]: -1.44 | interaction score [41]: -0.404 | interaction score [42]: -1.11 | interaction score [43]: 1.45 | interaction score [44]: 0.068 | interaction score [45]: -1.11 | interaction score [46]: 1.02 | interaction score [47]: 0.482 | interaction score [48]: 1.11 | interaction score [49]: 0.472 | interaction score [50]: -0.43 | interaction score [51]: 0.0625 | interaction score [52]: -0.364 | interaction score [53]: -0.678
